Test results from paper PMC12575849, “Condensation-dependent interactome of a chromatin remodeler underlies tumor suppressor activities” (Nature Communications, 2025).

Target: unmodified nucleosome (recombinant human histone octamer on Widom 601 DNA) (human, UniProt P04908 1-130; O60814 1-126; P68431 1-136; P62805 1-103)
Experiment: native gel or EMSA; purified CHD1 titrated against 5 nM IR dye-conjugated nucleosome in EMSA buffer (10 mM HEPES pH 8.0, 75 mM NaCl, 5 mM MgCl2, 10% glycerol, 1 mM DTT, 0.1 mg/ml BSA), 30 min at 30 °C, native PAGE; shifted fraction fitted to a dose-response curve
Details: both partners purified

B1: recombinant CHD1^ΔNC protein (domain or fragment)
chain: EEEFETIERFMDCRIGRKGATGATTTIYAVEADGDPNAGFEKNKEPGEIQYLIKWKGWSHIHNTWETEETLKQQNVRGMKKLDNYKKKDQETKRWLKNASPEDVEYYNCQQELTDDLHKQYQIVERIIAHSNQKSAAGYPDYYCKWQGLPYSECSWEDGALISKKFQACIDEYFSRNQSKTTPFKDCKVLKQRPRFVALKKQPSYIGGHEGLELRDYQLNGLNWLAHSWCKGNSCILADEMGLGKTIQTISFLNYLFHEHQLYGPFLLVVPLSTLTSWQREIQTWASQMNAVVYLGDINSRNMIRTHEWTHHQTKRLKFNILLTTYEILLKDKAFLGGLNWAFIGVDEAHRLKNDDSLLYKTLIDFKSNHRLLITGTPLQNSLKELWSLLHFIMPEKFSSWEDFEEEHGKGREYGYASLHKELEPFLLRRVKKDVEKSLPAKVEQILRMEMSALQKQYYKWILTRNYKALSKGSKGSTSGFLNIMMELKKCCNHCYLIKPPDNNEFYNKQEALQHLIRSSGKLILLDKLLIRLRERGNRVLIFSQMVRMLDILAEYLKYRQFPFQRLDGSIKGELRKQALDHFNAEGSEDFCFLLSTRAGGLGINLASADTVVIFDSDWNPQNDLQAQARAHRIGQKKQVNIYRLVTKGSVEEDILERAKKKMVLDHLVIQRMDTTGKTVLHTGSAPSSSTPFNKEELSAILKFGAEELFKEPEGEEQEPQEMDIDEILKRAETHENEPGPLTVGDELLSQFKVANFSNMDEDDIELEPERNSKNWEEIIPEDQRRRLEEEERQKELEEIYMLPRMRNCAKQISFNGSEGRRSRSRRYSGSDSDSISEGKRPKKRGRPRTIPRENIKGFSDAEIRRFIKSYKKFGGPLERLDAIARDAELVDKSETDLRRLGELVHNGCIKALKDSSSGTERTGGRLGKVKGPTFRISGVQVNAKLVISHEEELIPLHKSIPSDPEERKQYTIPCHTKAAHFDIDWGKEDDSNLLIGIYEYGYGSWEMIKMDPDLSLTHKILPDDPDKKPQAKQLQTRADYLIKLLSRDLAKKEALSGAGSSKRRKARAKKNKA
For B1, the Kd was 6.3 nM.
